# According to patent publication US20260242759A1, “GQ/11 Protein Peptidomimetics” (Vrije Universiteit Brussel, priority 2022, published 2026):
# Positions of bridges follow the written chain, without caps; N, C: chain ends. Non-standard residues stand in square brackets, D forms with d. Residues, ends and D or L forms follow the SMILES beside them. Triazole bridges read from a SMILES are 1,4-linked. Lys(N3) = [N-]=[N+]=NCCCC[C@H](N)C(=O)O; Cha = N[C@@H](CC1CCCCC1)C(=O)O; Pra = C#CC[C@H](N)C(=O)O
# T1: full-length human muscarinic 1 receptor with a FLAG tag at the N-terminus (human, UniProt P11229 1-460)
# T1 sequence: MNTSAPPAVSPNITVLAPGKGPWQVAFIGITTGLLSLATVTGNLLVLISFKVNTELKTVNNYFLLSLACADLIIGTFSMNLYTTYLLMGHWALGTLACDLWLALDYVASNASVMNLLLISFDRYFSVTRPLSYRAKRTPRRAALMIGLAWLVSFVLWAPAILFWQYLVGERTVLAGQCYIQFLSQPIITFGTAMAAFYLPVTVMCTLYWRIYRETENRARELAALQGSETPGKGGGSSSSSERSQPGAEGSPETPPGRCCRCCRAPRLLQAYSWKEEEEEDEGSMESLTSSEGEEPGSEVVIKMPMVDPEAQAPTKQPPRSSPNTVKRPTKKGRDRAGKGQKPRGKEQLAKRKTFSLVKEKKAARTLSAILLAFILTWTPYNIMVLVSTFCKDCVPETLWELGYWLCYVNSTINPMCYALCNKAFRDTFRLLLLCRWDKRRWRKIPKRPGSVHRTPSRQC
# Tests used:
# [1] = target: T2, human ghrelin receptor (GHSR) (Homo sapiens, UniProt Q92847, C146S/C304S); assay: Bimane fluorescence assay on purified ghrelin receptor in nanodiscs; type: biochemical; settings: for conformational change in the receptor: in presence of JMV1843
# T2 construct: integrin α5 fragment (N); polyhistidine tag (C); made in house; host or cells: E. coli BL21(DE3)
# T2 sequence (Q92847 whole entry C146S/C304S, the tested form may be a part): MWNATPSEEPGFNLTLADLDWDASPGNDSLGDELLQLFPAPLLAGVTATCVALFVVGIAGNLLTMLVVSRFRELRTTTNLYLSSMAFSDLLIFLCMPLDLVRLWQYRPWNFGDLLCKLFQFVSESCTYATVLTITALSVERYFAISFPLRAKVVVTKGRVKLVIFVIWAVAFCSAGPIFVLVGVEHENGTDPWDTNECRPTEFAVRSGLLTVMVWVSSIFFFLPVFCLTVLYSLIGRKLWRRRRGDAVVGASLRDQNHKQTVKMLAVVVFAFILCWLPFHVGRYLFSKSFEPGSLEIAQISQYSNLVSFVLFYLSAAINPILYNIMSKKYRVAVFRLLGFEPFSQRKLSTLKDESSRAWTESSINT
# From the text: Another assay that can be used to analyse conformational changes associated with GPCR activation and/or to identify G protein peptidomimetics that are capable of stabilizing a GPCR in an active conformational state is the bimane fluorescence assay or bimane assay. This assay works through labelling of a cysteine residue in the lower part of the TM6 of a GPCR with a bimane-fluorophore (monobromobimane (MB)). Binding of an agonist to the GPCR causes a conformational change and outward movement of TM6 that places bimane in a more solved-exposed position, which will alter its maximum emission wavelength. In particular, increasing concentrations of agonist result in a concentration-dependent red-shift of the maximum emission wavelength (λmax) of the bimane-fluorophore probe. In the presence of a G protein or an active state stabilizing G protein peptidomimetic λmax may increase further. For example, a bimane labelled ghrelin receptor (such as a cysmin mutant (i.e. mutant with minimal cysteines) of human ghrelin receptor (also referred to herein as growth hormone secretagogue receptor (GHSR) (e.g. the mutant as described in Damian et al. (2021) wherein monobromobimane (MB) fluorescent probe is attached to Cys^255) and ghrelin receptor agonist JMV1843 may be used.
# The bimane fluorescence assays on the ghrelin receptor were performed as described in Damian et al. (2021. Nat. Commun. 12:1-15). Briefly, E. coli bacteria (BL21(DE3)) were transformed with a vector encoding the human ghrelin receptor with an integrin α5 fragment at the N-terminus and a polyhistidine tag at the C-terminus. The receptors were then purified and reconstituted into lipidated nanodiscs. The monobromobimane labeling was performed by incubating the receptors, with a unique reactive cysteine at position 255, during 16 h in the dark at 4° C. and in the presence of 0.1 mM tris(2-carboxyethyl)phosphine (TCEO). The reaction was terminated with 5 mM L-cysteine and unreacted monobromobimane was removed using a Zeba™ Spin desalting column.
# For the fluorescence assay, the labeled receptor was incubated during 2 h at 20° C. (0.2 μM final concentration), in the absence or presence of the full agonist JMV1843 (20 μM) and in the absence or presence of either the peptidomimetics at varying molar ratios or the purified Gαqβ1γ2 heterotrimer, at a 1:5 receptor-to-G protein molar ratio. Afterwards, the fluorescence experiments were performed on a Horiba Fluoromax-4 TCSP spectrofluorimeter. For each scan, the excitation wavelength (λexc) was set at 380 nm and emission was collected between 440 nm and 520 nm.
# The bimane assay is used on GPCRs to detect conformational changes associated with receptor activation. This assay functions through the labelling of a cysteine, which is one of the least frequently occurring amino acids in proteins. Additionally, the majority of the extracellular cysteines form disulfide bonds, which, together with the transmembrane cysteines, are inert to thiol-reactive reagents. Additionally, some of the intracellular cysteines in the C-terminal tail may carry post-translational modifications which reduces the number of reactive cysteines in the receptor (Tian et al. 2017. Chem. Rev. 117:186-245). For GHSR, the remaining reactive cysteine residues C146 (ICL2) and C304 (extracellular end of TM7) were replaced by serines (cysmin mutant, i.e. mutant with minimal cysteines), to allow the monobromobimane (MB) fluorescent probe to be specifically attached to Cys255 in the lower part of TM6 (FIG. 5a) (Damian et al. 2021). In this assay, bimane is chosen because of its small size and sensitivity to the polarity of its environment (Yao et al. 2006. Nat Chem. Biol. 2:417-422). Binding of a ligand to the receptor, causes a conformational change and outward movement of TM6 that places bimane in a more solvent-exposed position, which alters its maximum emission wavelength. […]
# [2] = target: ghrelin receptor overexpressed on HEK293 cells (UniProt Q92847 1-366, limits assumed); assay: cell-based or functional assay
# ghrelin receptor overexpressed on HEK293 cells, sequence (Q92847 whole entry): as the sequence (Q92847 whole entry C146S/C304S, the tested form may be a part) above, with S146C, S304C counted along it
# [3] = target: T1, full-length human muscarinic 1 receptor …; assay: cell-based or functional assay
molecule,measurement,setting,value
Ac-FAAVKDTILQLNLKEYNLV-OH [SBL-GQ-01],conformational change in the receptor,[1]; bimane labeled GHSR,not able to induce a conformational change
CC[C@H](C)[C@H](NC(=O)[C@@H]1CCCCn2cc(nn2)C[C@H](NC(=O)[C@H](C)NC(=O)[C@H](Cc2ccccc2)NC(=O)[C@H](CCCCN)NC(=O)[C@H](CCCCN)NC(=O)[C@H](CCCCN)NC(C)=O)C(=O)N[C@@H](C(C)C)C(=O)N[C@@H](CCCCN)C(=O)N[C@@H](CC(=O)O)C(=O)N1)C(=O)N[C@@H](CC(C)C)C(=O)N[C@@H](CCC(N)=O)C(=O)N[C@@H](CC(C)C)C(=O)N[C@@H](CC(N)=O)C(=O)N[C@@H](CC(C)C)C(=O)N[C@@H](CCCCN)C(=O)N[C@@H](CCC(=O)O)C(=O)N[C@@H](Cc1ccc(O)cc1)C(=O)N[C@@H](CC(N)=O)C(=O)N[C@@H](CC(C)C)C(=O)N[C@H](C(=O)O)C(C)C [SBL-GQ-05] (Ac-KKKFA[Pra]VKD[Lys(N3)]ILQLNLKEYNLV-OH; triazole 6-10),Emax,"[1]; highest peptide concentrations (GHSR:peptide 1:50, 1:100), with JMV1843, read-out: effect normalized to the maximal effect of the Gq protein",~90%
Gq protein: purified Gαqβ1γ2 heterotrimer used as reference in the bimane assay,maximum emission wavelength of bimane,"[1]; bimane labeled GHSR, in presence of full agonist JMV1843 (20 μM)",~480.5 nm
"CC(C)(N)C(=O)N[C@H](Cc1c[nH]c2ccccc12)C(=O)N[C@H](Cc1c[nH]c2ccccc12)NC=O [JMV1843, reference compound]",maximum emission wavelength of bimane,"[1]; agonist JMV1843 alone, in the absence of the Gq protein",~476 nm
CC[C@H](C)[C@H](NC(=O)[C@@H](NC(=O)[C@H](CC(=O)O)NC(=O)[C@H](CCCCN)NC(=O)[C@@H](NC(=O)[C@H](C)NC(=O)[C@H](C)NC(=O)[C@H](Cc1ccccc1)NC(C)=O)C(C)C)[C@@H](C)O)C(=O)N[C@@H](CC(C)C)C(=O)N[C@@H](CCC(N)=O)C(=O)N[C@@H](CC(C)C)C(=O)N[C@@H](CC(N)=O)C(=O)N[C@@H](CC(C)C)C(=O)N[C@@H](CCCCN)C(=O)N[C@@H](CCC(=O)O)C(=O)N[C@@H](Cc1ccc(O)cc1)C(=O)N[C@@H](CC(N)=O)C(=O)N[C@@H](CC1CCCCC1)C(=O)N[C@H](C(=O)O)C(C)C [SBL-GQ-03] (Ac-FAAVKDTILQLNLKEYN[Cha]V-OH),conformational change in the receptor,[1]; bimane labeled GHSR,not able to induce a conformational change
H-KKKFA[Pra]VKD[Lys(N3)]ILQLNLKEYNLV-OH (triazole 6-10) [SBL-GQ-13],"EC50 (M) of the MK0677 agonist, IP-One Gq assay, peptidomimetic at 10 µM, n = 1",[2],4.42e-10 M
same,"EC50 (M) of the MK0677 agonist, IP-One Gq assay, peptidomimetic at 10 µM, n = 2",[2],1.01e-10 M
same,"EC50 (M) of the MK0677 agonist, IP-One Gq assay, peptidomimetic at 10 µM, n = 3",[2],1.31e-10 M
H-RRRRFA[Pra]VKD[Lys(N3)]ILQLNLKEYNLV-OH (triazole 7-11) [SBL-GQ-14],"EC50 (M) of the MK0677 agonist, IP-One Gq assay, peptidomimetic at 10 µM, n = 1",[2],6.96e-10 M
same,"EC50 (M) of the MK0677 agonist, IP-One Gq assay, peptidomimetic at 10 µM, n = 2",[2],1.01e-10 M
same,"EC50 (M) of the MK0677 agonist, IP-One Gq assay, peptidomimetic at 10 µM, n = 3",[2],1.87e-10 M
Ac-KKKFAAVKDTILQLNLKEYNLV-OH [SBL-GQ-02],"IC50 (µM) of the agonist acetylcholine chloride for the M1 receptor in the presence of the peptidomimetic, RLA",[3],474 µM
same,"Shift (IC50 ratio without/with peptidomimetic), RLA",[3],2
Ac-KKKFNDCKDIILQMNLREYNLV-OH [SBL-GQ-08],"IC50 (µM) of the agonist acetylcholine chloride for the M1 receptor in the presence of the peptidomimetic, RLA",[3],413 µM
same,"Shift (IC50 ratio without/with peptidomimetic), RLA",[3],2
Ac-KKKFNDCKDIILQMNLREYN[Cha]V-OH (SMILES CC[C@H](C)[C@H](NC(=O)[C@H](CC(=O)O)NC(=O)[C@H](CCCCN)NC(=O)[C@H](CS)NC(=O)[C@H](CC(=O)O)NC(=O)[C@H](CC(N)=O)NC(=O)[C@H](Cc1ccccc1)NC(=O)[C@H](CCCCN)NC(=O)[C@H](CCCCN)NC(=O)[C@H](CCCCN)NC(C)=O)C(=O)N[C@H](C(=O)N[C@@H](CC(C)C)C(=O)N[C@@H](CCC(N)=O)C(=O)N[C@@H](CCSC)C(=O)N[C@@H](CC(N)=O)C(=O)N[C@@H](CC(C)C)C(=O)N[C@@H](CCCNC(=N)N)C(=O)N[C@@H](CCC(=O)O)C(=O)N[C@@H](Cc1ccc(O)cc1)C(=O)N[C@@H](CC(N)=O)C(=O)N[C@@H](CC1CCCCC1)C(=O)N[C@H](C(=O)O)C(C)C)[C@@H](C)CC) [SBL-GQ-10],"IC50 (µM) of the agonist acetylcholine chloride for the M1 receptor in the presence of the peptidomimetic, RLA",[3],409 µM
same,"Shift (IC50 ratio without/with peptidomimetic), RLA",[3],2
